B1: mixed GGACU/AGACU/GAACU probe, m6A (ssRNA)
RNA: GGGGACUAGACUGAACUGGGACUAGACUGAACUGGGACUAGACUGAACUGUAC
modifications: all A = m6A (m6ATP)
B2: mixed GGACU/AGACU/GAACU probe, unmodified (ssRNA)
RNA: B1 RNA
B3: AGACU (9x), m6A (ssRNA)
RNA: GGGAGACUAGACUAGACUGAGACUAGACUAGACUGAGACUAGACUAGACUGUAC
modifications: all A = m6A (m6ATP)

Tests used:
[1] = target: T1, FMR1 (MBP fusion) (UniProt Q9NFU0 1-684); assay: SPR; EMSA: 10 mM HEPES pH 7.4, 50 mM KCl, 1 mM DTT (printed DDT), 1 mM EDTA, 0.05% Triton X-100, 5% glycerol, 10 ng/ul salmon DNA, 25 C, then 0.2% glutaraldehyde; SPR: 20 mM HEPES pH 7.4, 150 mM KCl, 1.5 mM MgCl2, 0.1% NP40, 25 C; pull-down: 10 mM Tris-HCl pH 7.5, 150 mM KCl, 1.5 mM MgCl2, 0.1% NP-40, 0.5 mM DTT, 4 C; conditions: protein: recombinant; label: biotin-16-UTP
T1 sequence (Q9NFU0 whole entry, the tested form may be a part): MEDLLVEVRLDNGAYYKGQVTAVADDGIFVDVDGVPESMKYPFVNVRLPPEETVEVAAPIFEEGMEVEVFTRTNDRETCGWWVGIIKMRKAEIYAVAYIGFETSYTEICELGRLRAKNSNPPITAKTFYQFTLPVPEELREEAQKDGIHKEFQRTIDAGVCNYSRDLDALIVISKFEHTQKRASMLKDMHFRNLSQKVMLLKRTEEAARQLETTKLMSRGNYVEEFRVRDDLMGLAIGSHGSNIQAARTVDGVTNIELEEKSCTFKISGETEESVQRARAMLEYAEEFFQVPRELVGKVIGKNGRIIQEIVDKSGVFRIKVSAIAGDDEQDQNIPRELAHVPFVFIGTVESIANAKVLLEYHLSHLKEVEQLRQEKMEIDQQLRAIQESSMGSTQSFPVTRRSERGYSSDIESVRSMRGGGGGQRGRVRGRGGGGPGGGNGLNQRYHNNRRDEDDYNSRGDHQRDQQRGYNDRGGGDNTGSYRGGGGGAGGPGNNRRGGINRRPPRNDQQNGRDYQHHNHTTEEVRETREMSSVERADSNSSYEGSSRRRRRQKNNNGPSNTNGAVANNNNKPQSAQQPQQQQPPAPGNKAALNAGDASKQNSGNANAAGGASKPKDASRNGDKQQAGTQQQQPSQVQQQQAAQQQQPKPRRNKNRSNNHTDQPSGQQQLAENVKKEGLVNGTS

[2] = target: T1, FMR1 (MBP fusion); assay: EMSA; EMSA: 10 mM HEPES pH 7.4, 50 mM KCl, 1 mM DTT (printed DDT), 1 mM EDTA, 0.05% Triton X-100, 5% glycerol, 10 ng/ul salmon DNA, 25 C, then 0.2% glutaraldehyde; SPR: 20 mM HEPES pH 7.4, 150 mM KCl, 1.5 mM MgCl2, 0.1% NP40, 25 C; pull-down: 10 mM Tris-HCl pH 7.5, 150 mM KCl, 1.5 mM MgCl2, 0.1% NP-40, 0.5 mM DTT, 4 C; conditions: protein: recombinant; label: biotin-16-UTP

Row | Binder | Kd [1] | binding result [2]
1 | B1 | 80.7 nM | 
2 | B2 | 3600 nM | 
3 | B3 |  | binds
